# Results as given in US6994959, “G-rich oligo aptamers and methods of modulating an immune response” (Valeant Research & Development).
# Experiments:
# Sp1 [1] = molecular target: T1, Sp1 (UniProt P08047 P08047:2-785); assay: EMSA; band A; competed by cold ds 28b oligo; room temperature; details: tags: Promega purified Sp1; label: 32P
# Description: (§1) In an effort to restrict the precise Sp1 binding region in 28b to the G-rich motif in the CD28 promoter region –197 to +28, we synthesized a double stranded (ds) 30mer oligo called 28b oligo (Seq #1 Table 1) which contains the 12mer GGGGAGGAGGGG within its sequence. We hypothesized that this was a Sp1 binding site in the CD28 promoter region. Following 32P-labeling, 28b oligo was incubated with Sp1 extract and indeed they bind to each other (FIG. 5, band A, lane 2 and 3). Competition with cold ds 28b oligo caused the band to disappear showing indeed that the binding was specific to Sp1 (lane 4). […] The consequence of this interaction is the prevention of Sp1 binding to the Sp1 site at –51 to –22 in the promoter region and which inhibits Sp1-mediated transcription of the CD28 gene and decreases expression of the mature CD28 protein.
# Sp1 [2] = molecular target: T1, Sp1; assay: competition; competes with 32P ds 28b oligo; about 70-100 molar excess; details: tags: Promega purified Sp1
# Description: as §1
# Sp1 [3] = molecular target: T1, Sp1; assay: competition; control oligo did not compete; about 70-100 molar excess; details: tags: Promega purified Sp1
# Description: as §1
# T1 sequence (P08047 2-785, one chain of several): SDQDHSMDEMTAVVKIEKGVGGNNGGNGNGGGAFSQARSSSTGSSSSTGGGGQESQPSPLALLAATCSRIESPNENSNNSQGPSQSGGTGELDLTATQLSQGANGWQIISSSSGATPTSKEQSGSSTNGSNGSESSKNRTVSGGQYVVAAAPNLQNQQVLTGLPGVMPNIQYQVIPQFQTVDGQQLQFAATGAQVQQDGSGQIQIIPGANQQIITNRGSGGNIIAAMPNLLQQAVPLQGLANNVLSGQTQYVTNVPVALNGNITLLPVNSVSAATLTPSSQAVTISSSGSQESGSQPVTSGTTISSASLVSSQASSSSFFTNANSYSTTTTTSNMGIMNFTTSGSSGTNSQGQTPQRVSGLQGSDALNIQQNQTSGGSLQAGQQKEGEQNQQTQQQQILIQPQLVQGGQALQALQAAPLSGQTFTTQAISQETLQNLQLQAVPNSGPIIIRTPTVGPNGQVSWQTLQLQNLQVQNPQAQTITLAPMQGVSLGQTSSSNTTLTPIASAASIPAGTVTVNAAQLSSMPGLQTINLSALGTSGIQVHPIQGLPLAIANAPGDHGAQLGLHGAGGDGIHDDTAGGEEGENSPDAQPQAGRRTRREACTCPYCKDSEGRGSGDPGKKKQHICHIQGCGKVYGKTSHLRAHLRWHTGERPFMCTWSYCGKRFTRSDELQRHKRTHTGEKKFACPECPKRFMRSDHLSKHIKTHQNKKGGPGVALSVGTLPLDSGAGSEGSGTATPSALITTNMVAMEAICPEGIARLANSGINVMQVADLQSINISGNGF
binder,measurement,setting,value
28b oligo (-51 to -22) (dsDNA) DNA 1: GGGTTCCTCGGGGAGGAGGGGCTGGAACCC DNA 2: GGGTTCCAGCCCCTCCTCCCCGAGGAACCC,binding result,Sp1 [1],binds
"TTGGAGGGGGTGGTGGGG (ssDNA, PS all linkages) [ICN 16064]",binding result,Sp1 [2],binds
"GGGGAGGAGGGGCTGGAA (ssDNA, PS all linkages) [ICN 16481]",binding result,Sp1 [2],binds
"TTCCAGCCCCTCCTCCCC (ssDNA, PS all linkages) [ICN 16476]",binding result,Sp1 [3],no binding
